From patent publication US20150197568A1

Biological target: Mature human IL-6 (human) (UniProt P05231)
Experiment: cell-based or functional assay

Mature human IL-6 (human), sequence (P05231 30-212): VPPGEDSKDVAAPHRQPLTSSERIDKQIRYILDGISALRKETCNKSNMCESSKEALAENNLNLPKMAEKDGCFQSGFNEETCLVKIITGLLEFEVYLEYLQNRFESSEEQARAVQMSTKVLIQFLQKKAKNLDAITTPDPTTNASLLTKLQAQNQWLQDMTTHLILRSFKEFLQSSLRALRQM

Row | Binder | IC50, TF-1 cell proliferation assay [pM] | IC50, IL-6 induced TF-1 cell proliferation assay [pM] | IC50, endogenous IL-6 induced synovial fibroblast VEGF release assay [pM]
1 | Antibody 14 scFv (scFv, part only; not given: scFv linker, part only) scFv, part: EVQLVQSGGGLIQPGGSLRLSCAASGFTISSNYMIWVRQAPGKGLEWVSDLYYYAGDTYYADSVKGRFTMSRDISKNTVYLQMNSLRAEDTGVYYCARWADDHNYPHIDVWGRGTLVTVSSDIVMTQSPSTLSASVGDRVTITCRASQGISSWLAWYQQKPGRAPKVLIYKASTLESGVPSRFSGSGSGTDFTLTISSLQPEDFATYYCAAHYAAPWTFGQGTKLEIKR | 448 |  | 
2 | Antibody 22 scFv (scFv, part only; not given: scFv linker, part only) scFv, part: EVQLVQSGGGLIQPGGSLRLSCAASGFTISSNYMIWVRQAPGKGLEWVSDLYYYAGDTYYADSVKGRFTMSRDISKNTVYLQMNSLRAEDTGVYYCARWADDHNNTYIDVWGRGTLVTVSSDIVMTQSPSTLSASVGDRVTITCRASQGISSWLAWYQQKPGRAPKVLIYKASTLESGVPSRFSGSGSGTDFTLTISSLQPEDFATYYCAAHYAAPWTFGQGTKLEIKR | 41 |  | 
3 | CNTO-328 (antibody, INN chains, looked up, V domains shown) VH: EVQLVESGGKLLKPGGSLKLSCAASGFTFSSFAMSWFRQSPEKRLEWVAEISSGGSYTYYPDTVTGRFTISRDNAKNTLYLEMSSLRSEDTAMYYCARGLWGYYALDYWGQGTSVTVSS VL: QIVLIQSPAIMSASPGEKVTMTCSASSSVSYMYWYQQKPGSSPRLLIYDTSNLASGVPVRFSGSGSGTSYSLTISRMEAEDAATYYCQQWSGYPYTFGGGTKLEIK | 74 | 101 | 1310
4 | Antibody 8 scFv (scFv, part only; not given: scFv linker, part only) scFv, part: EVQLVQSGGGLIQPGGSLRLSCAASGFTISSNYMIWVRQAPGKGLEWVSDLYYYAGDTYYADSVKGRFTMSRDISKNTVYLQMNSLRAEDTGVYYCARWADDHPRYIDHWGRGTLVTVSSDIVMTQSPSTLSASVGDRVTITCRASQGISSWLAWYQQKPGRAPKVLIYKASTLESGVPSRFSGSGSGTDFTLTISSLQPEDFATYYCQQSWLGGSFGQGTKLEIKR | 419 |  | 
5 | Antibody 21 scFv (scFv, part only; not given: scFv linker, part only) scFv, part: EVQLVQSGGGLIQPGGSLRLSCAASGFTISSNYMIWVRQAPGKGLEWVSDLYYYAGDTYYADSVKGRFTMSRDISKNTVYLQMNSLRAEDTGVYYCARWADDHPSHIDVWGRGTLVTVSSDIVMTQSPSTLSASVGDRVTITCRASQGISSWLAWYQQKPGRAPKVLIYKASTLESGVPSRFSGSGSGTDFTLTISSLQPEDFATYYCQQSWLGGSFGQGTKLEIKR | 42 |  | 
